Measurements from patent US20240309059A1, “PEPTIDE HAVING ANTI-VIRAL ACTIVITY, ANTI-VIRAL AGENT COMPRISING SAID PEPTIDE, AND METHOD FOR PRODUCING SAID ANTI-VIRAL AGENT” (National University Corporation Tokyo Medical and Dental …, priority 2021, published 2024).

Legend:
Test in all cases: cell-based or functional assay
[1] = target: receptor binding domain (RBD) in wild-type SARS-COV-2 (SARS-CoV-2 (wild-type)), P0DTC2
[2] = target: receptor binding domain (RBD) in the SARS-CoV-2 UK variant (B.1.1.7) (SARS-CoV-2 UK variant (B.1.1.7)), P0DTC2
[3] = target: receptor binding domain (RBD) in the SARS-CoV-2 Brazilian variant (P.1) (SARS-CoV-2 Brazilian variant (P.1)), P0DTC2

| Binder | IC50 value, plaque reduction assay using wild-type SARS-COV-2 [1] [nM] | IC50 value, plaque reduction assay using the SARS-COV-2 UK variant (B.1.1.7) [2] [nM] | IC50 value, plaque reduction assay using the SARS-COV-2 Brazilian variant (P.1) [3] [nM] |
| --- | --- | --- | --- |
| DKEWILQKIYEIMRLLDELGHAEASMRVSDLIYEFMKKD (modifications not checked) [Ce1] | 1.5 | – | – |
| DKLWILQKIYEIMVRLDEEGHGEASLMVSDLIYEFMKRD (modifications not checked) [Ce172] | – | 0.0022 | – |
| DKEWILYKIYEIMVRLDEEGHGEASLMVSDLIYEFMKRD (modifications not checked) [Ce149] | – | 0.0021 | – |
| DKEWILQKIYEIMRRLDEEGHAEASMRVSDLIYEFMKKD (modifications not checked) [Ce9] | 0.4 | 13 | 1200 |
| DKEWILQKIYEIMRRLDEEGHGEASLRVSDLIYEFMKKD (modifications not checked) [Ce41] | – | 0.68 | – |
| DKEWILQKIYEIMRRLDEEGHGEASLRVSDLIYEFMKRD (modifications not checked) [Ce59] | – | 0.2 | – |
